The source of these data is KR20140009174A (dated 2014).

Substitutions are numbered along the chain they refer to. In names and notes the source's numbering stands.

Test [1] has as its target CXCR4/Rluc + CXCR4/YFP (HEK293 세포의 CXCR4 동종이량체 BRET 파트너) (human; Renilla reniformis). In words: cell-based or functional assay.
Test [2] concerns the target T1, 인간 CXCR4 (케모카인 (C-X-C 모티브) 수용체 4) (human, UniProt P61073 1-352). Put plainly: cell-based or functional assay.
Test [3] addresses T1, 인간 CXCR4 (케모카인 (C-X-C 모티브) 수용체 4). Put plainly: FACS on NIH3T3-CXCR4 cells (legend of Fig. 21).
Test [4] shares this target. In words: competition flow cytometry on NIH3T3-CXCR4 cells; competitor biotinylated mouse 515H7.
Test [5] has the same target. In words: competition flow cytometry on NIH3T3-CXCR4 cells; competitor biotinylated mouse 515H7 (legend of Fig. 19).

Chain of CXCR4/Rluc + CXCR4/YFP (HEK293 세포의 CXCR4 동종이량체 BRET 파트너) (human; Renilla reniformis) (chain, as listed by the source, chain 1 of 2): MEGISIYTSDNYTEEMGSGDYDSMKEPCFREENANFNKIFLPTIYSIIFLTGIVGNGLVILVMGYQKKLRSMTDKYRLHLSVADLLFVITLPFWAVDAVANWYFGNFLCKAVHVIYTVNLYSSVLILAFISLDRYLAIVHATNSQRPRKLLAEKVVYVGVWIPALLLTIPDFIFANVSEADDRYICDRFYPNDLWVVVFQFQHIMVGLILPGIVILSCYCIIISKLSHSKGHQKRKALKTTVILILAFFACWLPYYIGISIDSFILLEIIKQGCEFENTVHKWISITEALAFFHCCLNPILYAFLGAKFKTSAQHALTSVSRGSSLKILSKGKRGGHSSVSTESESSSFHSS
Chain of CXCR4/Rluc + CXCR4/YFP (HEK293 세포의 CXCR4 동종이량체 BRET 파트너) (human; Renilla reniformis) (chain, as listed by the source, chain 2 of 2): as the sequence (chain, as listed by the source, chain 1 of 2) above
T1 sequence (P61073 whole entry): as the sequence (chain, as listed by the source, chain 1 of 2) above

B1: 항-CXCR4 Mab 301aE5 (마우스 모노클론 항체) (antibody, V domains shown)
VH: QVQLKESGPGLVAPSQSLSITCTVSGFSLTDYGVYWVRQPPGKGLEWLGMIWGDGTTDYNSALKSRLSISKDNSKSQVFLKMNTLQTDDTARYYCARGRQFGFDYWGQGTTLTVSS
VL: DIVMSQSPSSLAVSAGEKVTMRCKSSQSLFNSRTRKNYLAWYQQKPGQSPKLLIFWASIRESGVPDRFTGSGSGTDFTLTISSVQAEDLAVYYCKQSYNLRTFGGGTKLEIK
Regarding B1, the “SDF-1-유도성 BRET 증가의 저해” value in test [1] is 69%.

B2: 항-CXCR4 키메라 Mab c515H7 (antibody, human IgG1, kappa, V domains shown)
VH: EVNLVESGGGLVQPGGSLRLSCATSGFTFTDNYMSWVRQPPGKALEWLGFIRNKANGYTTDYSASVRGRFTISRDNSQSILYLQMNALRAEDSATYYCARDVGSNYFDYWGQGTTLTVSS
VL: DIVMSQSPSSLAVSAGEKVTMSCKSSQSLFNSRTRKNYLAWYQQKPGQSPKLLIYWASARDSGVPARFTGSGSETYFTLTISRVQAEDLAVYYCMQSFNLRTFGQGTKVEIKR
B2: in test [2], the “IC50, 89.6 복제 저해, 마라비록 2 μg/ml 첨가 시” value stood at 0.2 µg/mL and the “IC50, 인간 PBMC에서 이중 친화성 X4R5 바이러스 89.6 복제 저해 (다수 회차 검정법)” value came out at 2 µg/mL. For the same molecule, the “SDF-1-유도성 BRET 증가의 저해” value in test [1] came to 96%.

B3: hz515H7 VH1 D76N VL2.1 (antibody, V domains shown)
VH: EVQLVESGGGLVQPGRSLRLSCTASGFTFTDNYMSWVRQAPGKGLEWVGFIRNKANGYTTEYAASVKGRFTISRDNSKSIAYLQMNSLKTEDTAVYYCARDVGSNYFDYWGQGTLVTVSS
VL: B2 VL with S5T, S9D, A15L, K18R, V19A, S49P, A66D, T69S
Take B3: the binding result in test [3] is given as “binds”. The “SDF-1-유도성 BRET 증가의 저해 백분율” value in test [1] stood at 65%.

B4: 항-CXCR4 Mab 515H7 (마우스 모노클론 항체) (antibody, V domains shown)
VH: B2 VH
VL: B1 VL with R22S, F55Y, I59A, E61D, D66A, G74E, D76Y, S83R, K95M, Y98F
Turning to B4, the “SDF-1-유도성 BRET 증가의 저해” value in test [1] came out at 69%.

B5: hz515H7 VH1 D76N VL2.2 (antibody, V domains shown)
VH: B3 VH
VL: B2 VL with S5T, S9D, A15L, K18R, V19A, S49P, A66D, L89V
On to B5, for which, in test [3], the binding result is “binds”. Moreover, the “SDF-1-유도성 BRET 증가의 저해 백분율” value in test [1] was 33%.

B6: hz515H7 VH1 D76N VL2 (antibody, V domains shown)
VH: B3 VH
VL: B2 VL with S5T, A15L, K18R, V19A
notes: also called hz515H7 VH1 D76N-VL2 Mab; 인간화 515H7 Mab
On to B6, for which the binding result in test [3] is given as “binds”. Moreover, the “SDF-1-유도성 BRET 증가의 저해 백분율” value in test [1] was approximately 88%.

B7: hz515H7 VH1 D76N VL2.3 (antibody, V domains shown)
VH: B3 VH
VL: B2 VL with S5T, S9D, A15L, K18R, V19A, S49P, A66D, R83S, V84L
On to B7, for which the binding result in test [3] is recorded as “binds”. Further, the “SDF-1-유도성 BRET 증가의 저해 백분율” value in test [1] worked out at 21%.

B8: 515H7 인간화 VH 변형체 1 (VH1) + 마우스/키메라 VL (cVL) (antibody, human IgG1, kappa)
heavy: not shown
light: DIVMSQSPSSLAVSAGEKVTMSCKSSQSLFNSRTRKNYLAWYQQKPGQSPKLLIYWASARDSGVPARFTGSGSETYFTLTISRVQAEDLAVYYCMQSFNLRTFGQGTKVEIKRTVAAPSVFIFPPSDEQLKSGTASVVCLLNNFYPREAKVQWKVDNALQSGNSQESVTEQDSKDSTYSLSSTLTLSKADYEKHKVYACEVTHQGLSSPVTKSFNRGEC
notes: also called VH1 cVL; VH 변형체 1 (VH1) 마우스 VL 조합
With B8, the binding result in test [4] is “binds”.

B9: hz515H7 VH1 VL2 (VH 변형체 1 + VL 변형체 2) (antibody, human IgG1, kappa)
heavy: not shown
light: B8 light with S5T, A15L, K18R, V19A
As to B9, the binding result in test [5] is recorded as “binds”.
